B1: recombinant Desmodus rotundus salivary plasminogen activator alpha1 (DSPAα1) from transgenic T3 tobacco seeds, with C-terminal 6xHis tag and KDEL (protein)
chain: AYGVACKDEITQMTYRRQESWLRPEVRSKRVEHCQCDRGQARCHTVPVNSCSEPRCFNGGTCWQAVYFSDFVCQCPAGYTGKRCEVDTRATCYEGQGVTYRGTWSTAESRVECINWNSSLLTRRTYNGRMPDAFNLGLGNHNYCRNPNGAPKPWCYVIKAGKFTSESCSVPVCSKATCGLRKYKEPQLHSTGGLFTDITSHPWQAAIFAQNRRSSGERFLCGGILISSCWVLTAAHCFQESYLPDQLKVVLGRTYRVKPGEEEQTFKVKKYIVHKEFDDDTYNNDIALLQLKSDSPQCAQESDSVRAICLPEANLQLPDWTECELSGYGKHKSSSPFYSEQLKEGHVRLYPSSRCAPKFLFNKTVTNNMLCAGDTRSGEIYPNVHDACQGDSGGPLVCMNDNHMTLLGIISWGVGCGEKDVPGVYTKVTNYLGWIRDNMHLHHHHHHKDEL
B2: recombinant human tissue plasminogen activator (t-PA) from transgenic T1 tobacco seeds, with C-terminal 6xHis tag and KDEL (protein)
chain: SYQVICRDEKTQMIYQQHQSWLRPVLRSNRVEYCWCNSGRAQCHSVPVKSCSEPRCFNGGTCQQALYFSYFVCQCPEGFAGKCCEIDTRATCYEDQGISYRGTWSTAESGAECTNWNSSALAQKPYSGRRPDAIRLGLGNHNYCRNPDRDSKPWCYVFKAGKYSSEFCSTPACSEGNSDCYFGNGSAYRGTHSLTESGASCLPWNSMILIGKVYTAQNPSAQALGLGKHNYCRNPDGDAKPWCHVLKNRRLTWEYCDVPSCSTCGLRQYSQPQFRIKGGLFADIASHPWQAAIFAKHRRSPGERFLCGGILISSCWILSAAHCFQERFPPHHLTVILGRTYRVVPGEEEQKFEVEKYIVHKEFDDDTYDNDIALLQLKSDSSRCAQESSVVRTVCLPPADLQLPDWTECELSGYGKHEALSPFYSERLKEAHVRLYPSSRCTSQHLLNRTVTDNMLCAGDTRSGGPQANLHDACQGDSGGPLVCLNDGRMTLVGIISWGLGCGQKDVPGVYTKVTNYLDWIRDNMRPHHHHHHKDEL

Target: fibrin (formed in the agarose plate from fibrinogen and thrombin)

Protein	fibrin plate assay (fibrin degradation; lytic area on the fibrin plate)
B1	recombinant t-PA from T1 seeds and DSPAα1 from T3 homologous seeds can degrade fibrin
B2	recombinant t-PA from T1 seeds and DSPAα1 from T3 homologous seeds can degrade fibrin
